Assays:
purified protein [1] = substrate: N; assay: purified protein; conditions: standard assay: L-Asp, ATP, Mg2+, Tris-HCl pH 8.0, 37°C, purification state of the kinetic sample not stated
purified protein [2] = substrate: N[C@@H](CC(=O)O)C(=O)O; assay: purified protein; conditions: standard assay: NH4Cl, ATP, Mg2+, Tris-HCl pH 8.0, 37°C, purification state of the kinetic sample not stated
[3] = substrate: Nc1ncnc2c1ncn2[C@@H]1O[C@H](COP(=O)(O)OP(=O)(O)OP(=O)(O)O)[C@@H](O)[C@H]1O; assay: HPLC of L-Asn after OPA derivatization; double reciprocal plot; assay type: biochemical, Ligilactobacillus salivarius; conditions: standard assay: L-Asp, NH4Cl, Mg2+, Tris-HCl pH 8.0, 37°C, purification state of the kinetic sample not stated
Text: HPLC of L-Asn after OPA derivatization; double reciprocal plot on LsaAS-A

B1: LsaAS-A (Ligilactobacillus salivarius UCC118) (protein)
chain: MDLIIPKDYDPKLSIRETQEAIRYIRETFQDEFGKEMGLNRVSAPMYVEKSSGINDNLNGYEKPVSFTMKDMPGETIEVVHSLAKWKRMALKKYGFGLHEGLYTNMNAIRKDEDLDNFHSSYVDQWDWEKVISKDERNEKTLKETVELIFKVVKHMEHEVWYKFPNAVYHLPDKIHFITSQELEDKYPELEDAKDRENAICKELGCVFVMQIGDVLKSGKRHDGRAPDYDDWKLNGDILFWYEPLQCALELSSMGIRVDEDSMVEQLKKTGDEDRLKLQYHKMILNKELPYTIGGGIGQSRLCMLLLGKAHVGEVQASIWPDEMLKKCEENGIHIL
notes: full-length asnA product (~40 kDa) from plasmid pMA5, expressed in Bacillus subtilis WB600; Ni-NTA purification described in methods
Q: What does the source list for B1?
A: Km (purified protein [1]): 6500 µM; Km (purified protein [2]): 780 µM; Km [3]: 2240 µM

From publication PMC8495130, “Synthesis of L-asparagine Catalyzed by a Novel Asparagine Synthase Coupled With an ATP Regeneration System” (Frontiers in Bioengineering and Biotechnology, 2021)
